Literature values, collected in US10023622B2, “Method of immunization for reducing toxic damaged caused by oligomeric form of the amyloid-beta protein with stable amyloid beta monomers and oligomers” (ALZINOVA AB, priority 2008, dated 2018).

Settings: oxidized derivatives (cystines)

Fibrillation of oxidized disulphide mutants, all fibrillate:
F19C/L34C: previously published Aβ peptide disulphide mutant (Wetzel et al.)
F19C/I32C: previously published Aβ peptide disulphide mutant (Wetzel et al.)
V18C/L34C: previously published Aβ peptide disulphide mutant (Wetzel et al.)
L17C/L34C: previously published Aβ peptide disulfide mutant (Shivaprasad and Wetzel)
F19C/A30C: previously published Aβ peptide disulphide mutant (Wetzel et al.)
L17C/M35C: previously published Aβ peptide disulfide mutant (Shivaprasad and Wetzel)
